pKd: −log10 of the molar value.

The target of assay [1] is human recombinant ICAM-1 (D1-D2-Fc), Alexa Fluor 555 conjugate (human) (UniProt P05362). Kind of assay: FRET or BRET; steady-state, in solution competition screening, 96-well plate; Alexa Fluor 488-LFA-1 (100 nM) mixed with peptide (0.02, 0.2, 2, 20 µM), then incubated with Alexa Fluor 555-D1-D2-Fc (100 nM) for 30 min in the dark; PBS pH 7.4, 1 mM EGTA, 2 mM Mg2+; inhibition efficiency from the FRET efficiency.

Assay [2] concerns the target recombinant human integrin LFA-1 (αLβ2), Alexa Fluor 488 conjugate (human) (UniProt P20701). Kind of assay: FRET or BRET; steady-state, in solution, 96-well plate; Alexa Fluor 488-LFA-1 (donor) fixed at 100 nM, Alexa Fluor 555-D1-D2-Fc (acceptor) varied from 0 to 1.6 µM; PBS pH 7.4, 1 mM EGTA, 2 mM Mg2+; fit assuming one-to-one interaction.
Assay [3] addresses human recombinant ICAM-1 (D1-D2-Fc), Alexa Fluor 555 conjugate (human) (UniProt P05362). Kind of assay: FRET or BRET; steady-state, in solution; emission spectra at 470 nm excitation of mixtures with Alexa Fluor 555-D1-D2-Fc constant at 100 nM and Alexa Fluor 488-LFA-1 at 25-300 nM (A/D 8.40-0.70); incubated 30 minutes at room temperature; FRET efficiency by Eq. (3).

Sequence of human recombinant ICAM-1 (D1-D2-Fc), Alexa Fluor 555 conjugate (human) (P05362 28-532): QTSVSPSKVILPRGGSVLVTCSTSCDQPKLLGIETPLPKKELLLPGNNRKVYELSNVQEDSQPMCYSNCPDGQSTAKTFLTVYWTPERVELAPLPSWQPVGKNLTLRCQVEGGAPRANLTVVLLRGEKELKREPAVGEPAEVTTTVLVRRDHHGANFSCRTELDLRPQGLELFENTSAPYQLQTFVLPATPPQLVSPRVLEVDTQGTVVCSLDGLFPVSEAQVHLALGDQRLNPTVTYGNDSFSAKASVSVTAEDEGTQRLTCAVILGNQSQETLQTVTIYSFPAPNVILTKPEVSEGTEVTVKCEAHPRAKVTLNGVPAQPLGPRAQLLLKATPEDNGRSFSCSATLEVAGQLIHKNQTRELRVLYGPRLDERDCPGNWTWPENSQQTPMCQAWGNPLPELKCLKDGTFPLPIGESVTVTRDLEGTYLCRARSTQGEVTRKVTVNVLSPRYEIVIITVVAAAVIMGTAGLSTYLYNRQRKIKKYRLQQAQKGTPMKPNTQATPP
Sequence of recombinant human integrin LFA-1 (αLβ2), Alexa Fluor 488 conjugate (human) (P20701 26-1090, chain 1 of 2): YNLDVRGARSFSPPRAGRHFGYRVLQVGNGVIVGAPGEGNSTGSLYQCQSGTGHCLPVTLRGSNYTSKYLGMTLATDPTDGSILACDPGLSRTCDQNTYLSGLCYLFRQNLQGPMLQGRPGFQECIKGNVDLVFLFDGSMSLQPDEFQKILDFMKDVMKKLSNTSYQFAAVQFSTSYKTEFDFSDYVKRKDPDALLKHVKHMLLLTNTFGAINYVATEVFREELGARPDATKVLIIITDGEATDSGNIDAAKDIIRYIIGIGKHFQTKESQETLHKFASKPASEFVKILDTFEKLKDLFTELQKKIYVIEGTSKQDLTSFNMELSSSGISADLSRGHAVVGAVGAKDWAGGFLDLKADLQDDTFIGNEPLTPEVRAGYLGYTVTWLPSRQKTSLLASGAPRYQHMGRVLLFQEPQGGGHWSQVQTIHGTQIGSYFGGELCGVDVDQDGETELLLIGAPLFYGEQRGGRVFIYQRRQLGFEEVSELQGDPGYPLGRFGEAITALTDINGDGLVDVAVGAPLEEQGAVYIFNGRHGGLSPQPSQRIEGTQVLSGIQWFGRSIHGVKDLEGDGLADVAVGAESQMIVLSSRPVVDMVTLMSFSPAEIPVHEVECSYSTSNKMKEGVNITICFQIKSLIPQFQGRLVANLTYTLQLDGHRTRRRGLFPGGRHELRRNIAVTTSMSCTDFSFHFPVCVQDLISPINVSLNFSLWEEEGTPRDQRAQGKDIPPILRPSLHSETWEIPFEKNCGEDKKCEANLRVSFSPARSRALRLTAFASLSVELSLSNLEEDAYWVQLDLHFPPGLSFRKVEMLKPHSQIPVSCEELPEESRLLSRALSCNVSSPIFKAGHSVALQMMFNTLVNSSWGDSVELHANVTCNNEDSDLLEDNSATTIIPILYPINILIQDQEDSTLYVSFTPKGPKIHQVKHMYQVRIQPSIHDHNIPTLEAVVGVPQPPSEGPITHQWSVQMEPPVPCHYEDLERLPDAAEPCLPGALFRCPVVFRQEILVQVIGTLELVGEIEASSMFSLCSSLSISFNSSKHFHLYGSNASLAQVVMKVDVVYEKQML
Sequence of recombinant human integrin LFA-1 (αLβ2), Alexa Fluor 488 conjugate (human) (P05107 23-700, chain 2 of 2, further chain): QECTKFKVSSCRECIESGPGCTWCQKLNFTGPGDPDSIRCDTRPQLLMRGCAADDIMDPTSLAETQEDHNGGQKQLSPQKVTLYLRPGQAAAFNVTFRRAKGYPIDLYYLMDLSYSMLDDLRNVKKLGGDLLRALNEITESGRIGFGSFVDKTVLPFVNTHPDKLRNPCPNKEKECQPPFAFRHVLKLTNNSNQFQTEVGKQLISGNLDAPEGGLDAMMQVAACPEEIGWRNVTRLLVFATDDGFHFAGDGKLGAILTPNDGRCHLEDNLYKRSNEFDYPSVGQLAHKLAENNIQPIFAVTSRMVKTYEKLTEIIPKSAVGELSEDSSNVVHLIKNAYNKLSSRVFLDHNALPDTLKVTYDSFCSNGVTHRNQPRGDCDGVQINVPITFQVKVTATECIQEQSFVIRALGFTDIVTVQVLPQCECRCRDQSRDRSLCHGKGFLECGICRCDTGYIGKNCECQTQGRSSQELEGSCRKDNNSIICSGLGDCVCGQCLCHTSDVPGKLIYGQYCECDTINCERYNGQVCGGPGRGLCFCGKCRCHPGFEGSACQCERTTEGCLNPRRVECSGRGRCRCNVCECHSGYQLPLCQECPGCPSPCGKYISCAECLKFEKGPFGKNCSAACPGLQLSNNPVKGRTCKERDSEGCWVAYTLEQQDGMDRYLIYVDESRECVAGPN

As for CD11a(441–465) peptide, in assay [1], the inhibition efficiency of the LFA-1/D1-D2-Fc interaction at 0.02 µM peptide was 20.9%, the inhibition efficiency of the LFA-1/D1-D2-Fc interaction at 0.2 µM peptide was 37.1%, the inhibition efficiency of the LFA-1/D1-D2-Fc interaction at 2 µM peptide stood at 46.9% and the inhibition efficiency of the LFA-1/D1-D2-Fc interaction at 20 µM peptide came to 62%.
For “human recombinant ICAM-1 (D1-D2-Fc), Alexa Fluor 555 conjugate (from UniProt P05362 28-532) (Fc fusion)”, in assay [2], the pKd is 7.75.
For the substance “recombinant human integrin LFA-1 (αLβ2), Alexa Fluor 488 conjugate (from UniProt P20701 26-1090; P05107 23-700) (complex)”, the FRET efficiency (%) at A/D ratio 2.12 (100 nM LFA-1) in assay [3] was 53.5%.

The values above are taken from paper PMC4102529, “FRET Based Quantification and Screening Technology Platform for the Interactions of Leukocyte Function-Associated Antigen-1 (LFA-1) with InterCellular Adhesion Molecule-1 (ICAM-1)” (PLoS ONE, 2014).
